This passage reports EC50 results from patent publication CN116284407A (SUNSHINE GUOJIAN PHARMACEUTICAL SHANGHAI CO LTD, dated 2023).

Assay [1] addresses T1, 人GUCY2C-His蛋白 (human, UniProt P25092 24-430).
T1 construct: extracellular domain
The experiment in a line: ELISA, GUCY2C-His coated at 0.1 ug/mL, HRP anti-mouse secondary (Table 3). Background: In an ELISA, binding on a coated surface is turned into a signal by an enzyme label.

The target of assay [2] is T2, 人GUCY2C on cells (人结肠癌细胞CW2; GUCY2C过表达肿瘤细胞CW2-GCC#1) (human, UniProt P25092 24-1073).
T2 construct: whole, on cells; the gene put into CW2-GCC#1 is only called GUCY2C
T2 sequence (P25092 24-1073): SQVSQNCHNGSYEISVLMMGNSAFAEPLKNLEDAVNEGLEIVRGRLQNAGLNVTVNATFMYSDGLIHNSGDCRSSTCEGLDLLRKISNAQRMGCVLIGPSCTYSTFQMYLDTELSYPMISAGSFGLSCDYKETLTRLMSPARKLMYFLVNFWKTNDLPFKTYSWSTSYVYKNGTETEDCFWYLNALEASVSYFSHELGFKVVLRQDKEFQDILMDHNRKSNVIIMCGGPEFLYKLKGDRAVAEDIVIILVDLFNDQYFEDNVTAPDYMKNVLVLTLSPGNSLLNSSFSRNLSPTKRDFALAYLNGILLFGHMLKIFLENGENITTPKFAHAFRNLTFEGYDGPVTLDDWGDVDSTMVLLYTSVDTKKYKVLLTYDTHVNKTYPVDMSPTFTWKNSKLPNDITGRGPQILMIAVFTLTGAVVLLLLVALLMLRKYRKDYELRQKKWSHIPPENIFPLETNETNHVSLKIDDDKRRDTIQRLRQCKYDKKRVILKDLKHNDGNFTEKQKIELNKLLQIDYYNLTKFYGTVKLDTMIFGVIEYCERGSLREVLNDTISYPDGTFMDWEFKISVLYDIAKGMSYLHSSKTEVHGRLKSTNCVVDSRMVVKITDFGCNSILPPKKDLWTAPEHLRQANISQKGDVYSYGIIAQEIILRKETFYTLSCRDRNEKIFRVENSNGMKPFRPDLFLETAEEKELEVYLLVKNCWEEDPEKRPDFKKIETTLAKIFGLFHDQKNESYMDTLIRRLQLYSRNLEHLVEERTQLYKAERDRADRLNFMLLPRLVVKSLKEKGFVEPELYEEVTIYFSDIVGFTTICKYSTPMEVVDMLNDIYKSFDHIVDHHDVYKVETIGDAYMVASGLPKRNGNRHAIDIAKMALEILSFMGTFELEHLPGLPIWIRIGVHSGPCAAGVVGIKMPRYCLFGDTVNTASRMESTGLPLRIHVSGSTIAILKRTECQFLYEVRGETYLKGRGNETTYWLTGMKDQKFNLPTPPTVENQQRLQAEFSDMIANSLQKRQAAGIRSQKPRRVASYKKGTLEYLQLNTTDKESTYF
The experiment in a line: flow cytometry on CW2 human colon cancer cells, PE anti-mouse secondary. (In general: A flow cytometer gives signals particle by particle.)

Assay [3] has as its target T3, 人GUCY2C-Fc蛋白 (human, UniProt P25092 24-430).
T3 construct: extracellular domain; not shown: human IgG1 Fc at the C-terminus
The experiment in a line: indirect ELISA, GUCY2C-Fc coated at 1 ug/mL, HRP anti-mouse IgG.

T1 sequence (P25092 other isoform, or with tags, fused parts or gaps): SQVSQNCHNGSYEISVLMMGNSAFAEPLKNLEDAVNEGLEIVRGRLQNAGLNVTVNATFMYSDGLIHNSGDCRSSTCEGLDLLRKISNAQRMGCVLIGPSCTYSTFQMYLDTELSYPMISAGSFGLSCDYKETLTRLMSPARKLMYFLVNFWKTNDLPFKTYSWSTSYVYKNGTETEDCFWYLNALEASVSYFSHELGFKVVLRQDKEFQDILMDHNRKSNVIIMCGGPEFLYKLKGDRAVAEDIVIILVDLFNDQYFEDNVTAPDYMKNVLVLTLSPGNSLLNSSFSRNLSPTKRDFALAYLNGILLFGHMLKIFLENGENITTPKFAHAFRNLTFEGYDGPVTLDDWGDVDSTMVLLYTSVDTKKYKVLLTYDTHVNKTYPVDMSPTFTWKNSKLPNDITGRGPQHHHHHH
T3 sequence (P25092 24-430): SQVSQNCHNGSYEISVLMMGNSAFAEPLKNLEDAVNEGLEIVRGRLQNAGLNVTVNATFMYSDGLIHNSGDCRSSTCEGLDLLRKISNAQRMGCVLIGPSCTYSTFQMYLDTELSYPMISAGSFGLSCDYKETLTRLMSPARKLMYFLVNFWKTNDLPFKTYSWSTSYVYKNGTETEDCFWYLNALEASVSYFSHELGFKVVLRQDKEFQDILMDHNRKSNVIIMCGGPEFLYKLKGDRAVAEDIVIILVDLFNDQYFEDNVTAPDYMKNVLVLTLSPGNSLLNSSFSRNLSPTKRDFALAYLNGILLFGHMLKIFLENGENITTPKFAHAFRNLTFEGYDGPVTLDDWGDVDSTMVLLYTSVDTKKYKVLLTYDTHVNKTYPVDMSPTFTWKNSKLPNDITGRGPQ

B1: 55G7A7H2 (antibody, V domains shown)
VH: QVQLQQSGADLARPGASVKMSCKASGYTFTSYTMHWVKQRPGQGLEWIGYINPSSGYTNYNQKFQDKATLTADKSSSTAYMQLSSLTSEDSAVYYCARLGRIGVYWGQGTTLTVSS
VL: QIVLSQSPAILSAFPGEKVTLTCRASSSVSFIHWYQQKPGSSPKPWIYATSNLASGVPDRFSGSGSGTSFSFTISRVEAEDAATYYCQQWSSNPWTFGGGTKLEIK
Turning to B1, the results for the EC50 in assay [1], in assay [2] and in assay [3] were 0.12 nM, 6.27 µg/mL and 0.0215 µg/mL, respectively.
